{"source": "paper PMC12260524", "about": "“Identification of a VPS29 isoform with restricted association to Retriever and Retromer accessory proteins through autoinhibition” (Proceedings of the National Academy of Sciences of the …, 2025)", "biological_target": "GST-VPS29C (human) (UniProt F8VXU5)", "assay": "ITC; 300 μM peptide titrated into 10 μM GST-tagged VPS29C, 25 °C, 50 mM Tris-HCl pH 7.5, 200 mM NaCl, 2 mM β-mercaptoethanol; single-site model", "data": [{"substance": "VPS35L 28 to 37 (from UniProt Q7Z3J2 28-37) (peptide)", "values": [{"measurement": "Kd", "value": "> 100", "unit": "µM"}]}]}
